Laboratory results taken from paper PMC4615642 (RNA Biology, 2015).

Tests used:
[1] = target: T1, Myo4p-C (C-terminal cargo-binding region of Myo4p, amino acids 923-1471, His6 fusion) (S. cerevisiae, UniProt P32492 923-1471); experiment: SEC-MALS
T1 sequence (looked up): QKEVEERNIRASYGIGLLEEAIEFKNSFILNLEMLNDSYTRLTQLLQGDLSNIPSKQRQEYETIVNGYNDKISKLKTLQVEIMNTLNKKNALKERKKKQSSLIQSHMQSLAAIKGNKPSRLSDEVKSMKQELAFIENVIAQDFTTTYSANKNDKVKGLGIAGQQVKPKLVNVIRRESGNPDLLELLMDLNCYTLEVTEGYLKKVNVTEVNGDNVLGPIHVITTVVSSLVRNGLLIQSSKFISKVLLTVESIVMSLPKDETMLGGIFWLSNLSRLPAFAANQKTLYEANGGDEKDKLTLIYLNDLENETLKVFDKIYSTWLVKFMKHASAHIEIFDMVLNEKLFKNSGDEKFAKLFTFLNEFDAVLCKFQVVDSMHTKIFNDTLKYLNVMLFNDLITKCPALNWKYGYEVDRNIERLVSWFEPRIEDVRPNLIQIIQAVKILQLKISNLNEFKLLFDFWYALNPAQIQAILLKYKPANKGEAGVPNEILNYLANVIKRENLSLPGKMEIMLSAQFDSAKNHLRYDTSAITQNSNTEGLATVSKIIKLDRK

[2] = target: the molecule itself; experiment: SEC-MALS

B1: She3p-His6 (full-length She3p) (natural protein, S. cerevisiae, UniProt P38272 1-425, looked up)
chain: MSDQDNTQTSSSKLAPHHNIFMANLESSPTKDRNTSSQNASSSRVIESLHDQIDMLTKTNLQLTTQSQNLLSKLELAQSKESKLLENLNLLKNENENLNSIFERKNKKLKELEKDYSELSNRYNEQKEKMDQLSKLAKNSSAIEQSCSEKLQNMEVNYNSLLESQNLYRDHYSDEISKLNEKIGLLELELSNQNLNYGSDTSSNSDIELNLNKFNDSVKDLKSLETEKDSKLSKIITHSLDELNLQSWLNLYQTNENLISTFAEKMDLKDVLKRNDEKISNKGAVVQTLKKNVQTQVESNNADALSSNNAQDMLPIKMVKLRKTPNTNDSSSNGNSSNNKRRSFYTASPLLSSGSIPKSASPVLPGVKRTASVRKPSSSSSKTNVTHNNDPSTSPTISVPPGVTRTVSSTHKKKGNSMVVHGAQS
stoichiometry N [1]: 2 She3p per Myo4p | stoichiometry N [2]: 2
